Laboratory results reported in US9393271B2, “GHRH agonists for islet cell transplantation and function and the treatment of diabetes” (UNIVERSITY OF MIAMI, priority 2012, dated 2016).
Non-standard residues stand in square brackets, D forms with d. No end group written: not given here. *: point of attachment. Phe(F5) = N[C@@H](Cc1c(F)c(F)c(F)c(F)c1F)C(=O)O; Desaminotyrosyl = O=C(CCc1ccc(O)cc1)*; NMeY = CN[C@@H](Cc1ccc(O)cc1)C(=O)O; Agmatine = N=C(N)NCCCCN*; NMeA = CN[C@@H](C)C(=O)O; Nle = CCCC[C@H](N)C(=O)O; Orn = NCCC[C@H](N)C(=O)O; Abu = CC[C@H](N)C(=O)O; Aoc = NCCCCCCCC(=O)O; Ava = NCCCCC(=O)O; GABA = NCCCC(=O)O

T1: GHRH receptor in human pituitary membrane homogenates (human, UniProt Q02643)
T1 sequence: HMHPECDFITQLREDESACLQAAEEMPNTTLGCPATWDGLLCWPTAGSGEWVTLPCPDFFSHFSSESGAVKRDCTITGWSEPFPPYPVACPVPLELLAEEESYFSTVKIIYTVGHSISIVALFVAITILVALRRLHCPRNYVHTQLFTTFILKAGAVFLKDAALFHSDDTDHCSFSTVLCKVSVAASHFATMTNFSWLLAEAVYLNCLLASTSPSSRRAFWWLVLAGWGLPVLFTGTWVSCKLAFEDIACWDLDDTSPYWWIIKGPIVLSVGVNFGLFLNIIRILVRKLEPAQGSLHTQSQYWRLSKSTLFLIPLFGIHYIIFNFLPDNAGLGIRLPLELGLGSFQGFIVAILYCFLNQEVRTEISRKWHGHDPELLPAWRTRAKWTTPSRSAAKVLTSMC


Molecular target: T1, GHRH receptor in human pituitary …
Assay: ligand competition, 125I-JV-1-42 displaced, human pituitary membranes

Binder | IC50 [nM] | relative affinity (binding potency) vs JI-38 [JI-38 = 1]
[NMeY]ADAIFTQSYR[Orn]VL[Abu]QLSAR[Orn]LLQDI[Nle]SRQ-{GABA-NH2} [[N-Me-Tyr1, Gln8, Orn12, Abu15, Orn21, Nle27, Gln-Gab30]hGHRH(1-30)NH2] | 1.22 | 3.57
[NMeY][dA]DAI[Phe(F5)]TNSYR[Orn]VL[Abu]QLSAR[Orn]LLQDI[Nle]DR-NHMe [[N-Me-Tyr1, D-Ala2, Fpa5-6, Orn12, Abu15, Orn21, Nle27, Asp28]hGHRH(1-29)NH-CH3] | 0.87 | 5
[NMeY]ADAIFTQSYR[Orn]VL[Abu]QLSAR[Orn]LLQDI[Nle]SR-NHMe (not fully specified) [[N-Me-Tyr1, Gln8, Orn12, Abu15, Orn21, Nle27]hGHRH(1-29)NH-CH3] | 1.08 | 4.03
[NMeY]ADAIFTQSYR[Orn]VL[Abu]QLSAR[Orn]LLQDI[Nle]DR-NHMe (not fully specified) [[N-Me-Tyr1, Gln8, Orn12, Abu15, Orn21, Nle27, Asp28]hGHRH(1-29)NH-CH3] | 0.3 | 14.5
[Desaminotyrosyl]ADAIFTQSYR[Orn]VL[Abu]QLSAR[Orn]LLQDI[Nle]DR-NHMe (not fully specified) [[Dat1, Gln8, Orn12, Abu15, Orn21, Nle27, Asp28]hGHRH(1-29)NH-CH3] | 3 | 1.45
[NMeY]ADAIFTNSYR[Orn]VL[Abu]QLSAR[Orn]LLQDI[Nle]DR[Aoc]-NH2 (N-terminus assumed; SMILES CCCC[C@H](NC(=O)[C@@H](NC(=O)[C@H](CC(=O)O)NC(=O)[C@H](CCC(N)=O)NC(=O)[C@H](CC(C)C)NC(=O)[C@H](CC(C)C)NC(=O)[C@H](CCCN)NC(=O)[C@H](CCCNC(=N)N)NC(=O)[C@H](C)NC(=O)[C@H](CO)NC(=O)[C@H](CC(C)C)NC(=O)[C@H](CCC(N)=O)NC(=O)[C@H](CC)NC(=O)[C@H](CC(C)C)NC(=O)[C@@H](NC(=O)[C@H](CCCN)NC(=O)[C@H](CCCNC(=N)N)NC(=O)[C@H](Cc1ccc(O)cc1)NC(=O)[C@H](CO)NC(=O)[C@H](CC(N)=O)NC(=O)[C@@H](NC(=O)[C@H](Cc1ccccc1)NC(=O)[C@@H](NC(=O)[C@H](C)NC(=O)[C@H](CC(=O)O)NC(=O)[C@H](C)NC(=O)[C@H](Cc1ccc(O)cc1)NC)[C@@H](C)CC)[C@@H](C)O)C(C)C)[C@@H](C)CC)C(=O)N[C@@H](CC(=O)O)C(=O)N[C@@H](CCCNC(=N)N)C(=O)NCCCCCCCC(N)=O) [[N-Me-Tyr1, Orn12, Abu15, Orn21, Nle27, Asp28, Amc30]hGHRH(1-30)NH2] | 2.99 | 1.45
[NMeY]ADAIFTQSYR[Orn]VL[Abu]QLSAR[Orn]LLQDI[Nle]DR[Ava]-NH2 [[N-Me-Tyr1, Gln8, Orn12, Abu15, Orn21, Nle27, Asp28, Apa30]hGHRH(1-30)NH2] | 3.8 | 1.14
[Desaminotyrosyl]ADAIFTQSYR[Orn]VL[Abu]QLSAR[Orn]LLQDI[Nle]DR[Ava]-NH2 (SMILES CCCC[C@H](NC(=O)[C@@H](NC(=O)[C@H](CC(=O)O)NC(=O)[C@H](CCC(N)=O)NC(=O)[C@H](CC(C)C)NC(=O)[C@H](CC(C)C)NC(=O)[C@H](CCCN)NC(=O)[C@H](CCCNC(=N)N)NC(=O)[C@H](C)NC(=O)[C@H](CO)NC(=O)[C@H](CC(C)C)NC(=O)[C@H](CCC(N)=O)NC(=O)[C@H](CC)NC(=O)[C@H](CC(C)C)NC(=O)[C@@H](NC(=O)[C@H](CCCN)NC(=O)[C@H](CCCNC(=N)N)NC(=O)[C@H](Cc1ccc(O)cc1)NC(=O)[C@H](CO)NC(=O)[C@H](CCC(N)=O)NC(=O)[C@@H](NC(=O)[C@H](Cc1ccccc1)NC(=O)[C@@H](NC(=O)[C@H](C)NC(=O)[C@H](CC(=O)O)NC(=O)[C@H](C)NC(=O)CCc1ccc(O)cc1)[C@@H](C)CC)[C@@H](C)O)C(C)C)[C@@H](C)CC)C(=O)N[C@@H](CC(=O)O)C(=O)N[C@@H](CCCNC(=N)N)C(=O)NCCCCC(N)=O) [[Dat1, Gln8, Orn12, Abu15, Orn21, Nle27, Asp28, Apa30]hGHRH(1-30)NH2] | 1.99 | 2.18
[Desaminotyrosyl][dA]DAIFT[NMeA]SYR[Orn]VL[Abu]QLSAR[Orn]LLQDI[Nle]D[Agmatine] (SMILES CCCC[C@H](NC(=O)[C@@H](NC(=O)[C@H](CC(=O)O)NC(=O)[C@H](CCC(N)=O)NC(=O)[C@H](CC(C)C)NC(=O)[C@H](CC(C)C)NC(=O)[C@H](CCCN)NC(=O)[C@H](CCCNC(=N)N)NC(=O)[C@H](C)NC(=O)[C@H](CO)NC(=O)[C@H](CC(C)C)NC(=O)[C@H](CCC(N)=O)NC(=O)[C@H](CC)NC(=O)[C@H](CC(C)C)NC(=O)[C@@H](NC(=O)[C@H](CCCN)NC(=O)[C@H](CCCNC(=N)N)NC(=O)[C@H](Cc1ccc(O)cc1)NC(=O)[C@H](CO)NC(=O)[C@H](C)N(C)C(=O)[C@@H](NC(=O)[C@H](Cc1ccccc1)NC(=O)[C@@H](NC(=O)[C@H](C)NC(=O)[C@H](CC(=O)O)NC(=O)[C@@H](C)NC(=O)CCc1ccc(O)cc1)[C@@H](C)CC)[C@@H](C)O)C(C)C)[C@@H](C)CC)C(=O)N[C@@H](CC(=O)O)C(=O)NCCCCNC(=N)N) [[Dat1, D-Ala2, N-Me-Ala8, Orn12, Abu15, Orn21, Nle27, Asp28, Agm29]hGHRH(1-29)] | 0.86 | 5.06
Ac-[NMeY][dA]DAIFTQSYR[Orn]VL[Abu]QLSAR[Orn]LLQDI[Nle]D[Agmatine] (SMILES CCCC[C@H](NC(=O)[C@@H](NC(=O)[C@H](CC(=O)O)NC(=O)[C@H](CCC(N)=O)NC(=O)[C@H](CC(C)C)NC(=O)[C@H](CC(C)C)NC(=O)[C@H](CCCN)NC(=O)[C@H](CCCNC(=N)N)NC(=O)[C@H](C)NC(=O)[C@H](CO)NC(=O)[C@H](CC(C)C)NC(=O)[C@H](CCC(N)=O)NC(=O)[C@H](CC)NC(=O)[C@H](CC(C)C)NC(=O)[C@@H](NC(=O)[C@H](CCCN)NC(=O)[C@H](CCCNC(=N)N)NC(=O)[C@H](Cc1ccc(O)cc1)NC(=O)[C@H](CO)NC(=O)[C@H](CCC(N)=O)NC(=O)[C@@H](NC(=O)[C@H](Cc1ccccc1)NC(=O)[C@@H](NC(=O)[C@H](C)NC(=O)[C@H](CC(=O)O)NC(=O)[C@@H](C)NC(=O)[C@H](Cc1ccc(O)cc1)N(C)C(C)=O)[C@@H](C)CC)[C@@H](C)O)C(C)C)[C@@H](C)CC)C(=O)N[C@@H](CC(=O)O)C(=O)NCCCCNC(=N)N) [[Ac-N-Me-Tyr1, D-Ala2, Gln8, Orn12, Abu15, Orn21, Nle27, Asp28, Agm29]hGHRH(1-29)] | 3.44 | 1.26
[NMeY][dA]DAI[Phe(F5)]TNSYR[Orn]VL[Abu]QLSAR[Orn]LLQDI[Nle]D[Agmatine] [[N-Me-Tyr1, D-Ala2, Fpa5-6, Orn12, Abu15, Orn21, Nle27, Asp28, Agm29]hGHRH(1-29)] | 3.05 | 1.43
[NMeY][dA]DAIFTQSYR[Orn]VL[Abu]QLSAR[Orn]LLQDI[Nle]D[Agmatine] [[N-Me-Tyr1, D-Ala2, Gln8, Orn12, Abu15, Orn21, Nle27, Asp28, Agm29]hGHRH(1-29)] | 0.82 | 5.3
[NMeY][dA]DAIFTNSYR[Orn]VL[Abu]QLSAR[Orn]LLQDI[Nle]D[Agmatine] [[N-Me-Tyr1, D-Ala2, Orn12, Abu15, Orn21, Nle27, Asp28, Agm29]hGHRH(1-29)] | 1.7 | 2.56
[NMeY][Abu]DAIFTNSYR[Orn]VL[Abu]QLSAR[Orn]LLQDI[Nle]SR[GABA]-NH2 (N-terminus assumed; SMILES CCCC[C@H](NC(=O)[C@@H](NC(=O)[C@H](CC(=O)O)NC(=O)[C@H](CCC(N)=O)NC(=O)[C@H](CC(C)C)NC(=O)[C@H](CC(C)C)NC(=O)[C@H](CCCN)NC(=O)[C@H](CCCNC(=N)N)NC(=O)[C@H](C)NC(=O)[C@H](CO)NC(=O)[C@H](CC(C)C)NC(=O)[C@H](CCC(N)=O)NC(=O)[C@H](CC)NC(=O)[C@H](CC(C)C)NC(=O)[C@@H](NC(=O)[C@H](CCCN)NC(=O)[C@H](CCCNC(=N)N)NC(=O)[C@H](Cc1ccc(O)cc1)NC(=O)[C@H](CO)NC(=O)[C@H](CC(N)=O)NC(=O)[C@@H](NC(=O)[C@H](Cc1ccccc1)NC(=O)[C@@H](NC(=O)[C@H](C)NC(=O)[C@H](CC(=O)O)NC(=O)[C@H](CC)NC(=O)[C@H](Cc1ccc(O)cc1)NC)[C@@H](C)CC)[C@@H](C)O)C(C)C)[C@@H](C)CC)C(=O)N[C@@H](CO)C(=O)N[C@@H](CCCNC(=N)N)C(=O)NCCCC(N)=O) [[N-Me-Tyr1, Abu2, Orn12, Abu15, Orn21, Nle27, Gab30]hGHRH(1-30)NH2] | 1.18 | 3.67
[Desaminotyrosyl]ADAIFTQSYH[Orn]VL[Abu]QLSAH[Orn]LLQDI[Nle]DR-NHMe (not fully specified) [[Dat1, Gln8, His11, Orn12, Abu15, His20, Orn21, Nle27, Asp28]hGHRH(1-29)NH-CH3] | 2.45 | 1.78
[NMeY]ADAIFTNSYR[Orn]VL[Abu]QLSAR[Orn]LLQDI[Nle]SR[GABA]-NHMe [[N-Me-Tyr1, Orn12, Abu15, Orn21, Nle27, Gab30]hGHRH(1-30)NH-CH3] | 3.02 | 1.44
